Reference: the supplement of paper PMC10126150
± gives the standard deviation of the averaged measurements.

These sequences were tested on ATP (assay: switch fluorescence ratio, 500 uM ATP over buffer (Cy3 cluster intensity, sum of 5 cycles each) (fold (ratio)); higher = stronger signal-on switching upon ATP binding; sequences stand for … in TCGTCGGCAGCGTCAGATGTGTATAAGAGACAGTTTTTTTTTTTTTTTTTTTTTTTTT…TC). Conditions: aptamer strand: ATP DNA aptamer (quencher-CACCTGGGGGAGTATTGCGGAGGAAGG + anchor), 100 nM annealed; ATP concentration: 500 uM.
Method in brief: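 Values give the fluorescence ratio for each switch-domain sequence, averaged from per-cluster ratios of summed target-cycle to summed buffer-cycle Cy3 intensity. The Cy3-labelled switching-strand clusters sat on a modified Illumina MiSeq flow-cell, were annealed to 100 nM quencher-labelled ATP aptamer, and were imaged in selection buffer, then after 15 min with 500 uM ATP at 22 °C. Five cycles ran with NaOH stripping and re-annealing between them, and clusters outside 100-1000 RFU were excluded.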
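Note: ATP exposure 15 min at 22 °C before imaging.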

Row | Sequence | switch fluorescence ratio
1 | AACCGCGATG | 2.25 ± 0.1
2 | GGGGGGAGAA | 1.01 ± 0.039
3 | TCGGACGGAA | 2.17 ± 0.21
4 | TTGAAATGTT | 0.9923 ± 0.0033
5 | AATTTTTAAC | 1 ± 0.028
6 | GTTTTTGGAT | 0.991 ± 0.0049
7 | TGGTGCTTGG | 1.04 ± 0.013
8 | TTAGAATTAG | 1 ± 0.017
9 | CGTTGAGGAA | 0.9853 ± 0.0038
10 | GATGATTTTG | 0.979 ± 0.047
11 | CAATTTTCTG | 0.985 ± 0.057
12 | AGGCGCCGCA | 1.01 ± 0.018
13 | TCCGGAGAAT | 1.79 ± 1.1
14 | TAACCCGGTT | 0.999 ± 0.042
15 | CTGTAATGGT | 1.04 ± 0.061
16 | CAAGGTAGGG | 0.968 ± 0.019
17 | TTTCGTGGGA | 0.999 ± 0.04
18 | GACCAGGGAT | 1.088 ± 0.0031
19 | GGGTAGGCAG | 1.18 ± 0.25
20 | TGTTTGTCTT | 1 ± 0.069
21 | CGGAAAGAAG | 0.989 ± 0.046
22 | GGGGAAGAGT | 0.996 ± 0.052
23 | TTTATACCGA | 1.067 ± 0.004
24 | GGGTTCTTAC | 0.999 ± 0.011
25 | TTTTTCTCGG | 0.992 ± 0.01

Row | Sequence | switch fluorescence ratio
26 | GGGGCGTATG | 0.993 ± 0.02
27 | TCCGTTTCTG | 0.971 ± 0.018
28 | TTTAGTACGT | 1.02 ± 0.057
29 | CTATAGGAAA | 1.03 ± 0.026
30 | TCTGGGAAAG | 1 ± 0.013
31 | TTTTTTGCCC | 1.02 ± 0.048
32 | TTTCGGAAGG | 0.988 ± 0.025
33 | GAAGTGGGGT | 0.995 ± 0.015
34 | GCATTGAAGC | 0.995 ± 0.011
35 | CTTTTCATTG | 1.06 ± 0.089
36 | TTGAGCATGG | 1.06 ± 0.051
37 | CATAACGGGG | 0.957 ± 0.04
38 | TCAGATTGTT | 0.9623 ± 0.0028
39 | AGGTCTGCGG | 0.967 ± 0.025
40 | CGTGAAAGCG | 0.9683 ± 0.005
41 | TTTGTTGTAT | 1 ± 0.032
42 | TCTGTGTTGA | 1 ± 0.011
43 | GTTCTATATT | 0.986 ± 0.062
44 | ACCGGGATGC | 3.66 ± 0.26
45 | TTTTGGTCAT | 0.962 ± 0.053
46 | CGAATGTGGG | 1.0147 ± 0.00075
47 | AAGGGCCCTA | 0.9939 ± 0.0018
48 | TCAACGTAGA | 1.03 ± 0.014
49 | CTCTTGGGGT | 0.997 ± 0.021
50 | TCCCGGCAGA | 0.997 ± 0.013

Row | Sequence | switch fluorescence ratio
51 | TTGTGTTTCT | 0.9974 ± 0.0066
52 | AGTTTTTATT | 1.03 ± 0.015
53 | GTAAGTACTG | 1.36 ± 0.015
54 | GAGGGGAGGA | 1.04 ± 0.014
55 | TACCCAGATT | 1.66 ± 0.98
56 | GCTAAGTTTA | 0.996 ± 0.025
57 | TACTATATGG | 1.03 ± 0.011
58 | AGACTTTTGG | 0.987 ± 0.011
59 | CACTGCGCGC | 1.11 ± 0.017
60 | CCGGTTTGTC | 1.02 ± 0.044
61 | TACTTTGGTT | 0.975 ± 0.038
62 | AGGTTGTAGC | 0.998 ± 0.02
63 | GGGGTTGGAG | 0.979 ± 0.022
64 | CAGAGGGGGA | 1.04 ± 0.036
65 | ACGGAGAAAC | 1.35 ± 0.11
66 | CGTGCGTGTA | 1.02 ± 0.053
67 | TCCAAGGGAT | 1.01 ± 0.012
68 | TTTGAATGAT | 0.984 ± 0.015
69 | CGTATTTATT | 1.01 ± 0.021
70 | TTTTTGGACG | 0.969 ± 0.081
71 | ATCCGAGTCA | 1.07 ± 0.014
72 | TGAATGACGT | 0.972 ± 0.04
73 | CGAATTGGTA | 0.982 ± 0.011
74 | TAAAGAGAGC | 1.01 ± 0.097
75 | CAGGTGGTGG | 1.02 ± 0.02

Row | Sequence | switch fluorescence ratio
76 | AGATCGTGGG | 1.04 ± 0.015
77 | CTTAGATGGG | 0.9579 ± 0.0064
78 | CTGACTTCAT | 1.0521 ± 0.00045
79 | TAGATTTGGG | 0.967 ± 0.0089
80 | CCGAGGGAGA | 1.25 ± 0.024
81 | AAAGATGAAT | 1.04 ± 0.011
82 | ATTTTTCTGC | 1.03 ± 0.039
83 | GGAGTATGGG | 0.997 ± 0.029
84 | TTAGGGAATG | 1 ± 0.07
85 | GGGACGTTAG | 1.09 ± 0.034
86 | TTTGGTGATA | 0.943 ± 0.01
87 | TTGTGAAATT | 0.993 ± 0.015
88 | TGGTTTAGAG | 0.979 ± 0.024
89 | CAGACGGTTT | 1.095 ± 0.0078
90 | GTTGGGGAGC | 1.005 ± 0.0066
91 | TTTAATGCGC | 1.23 ± 0.37
92 | AATTTGTGGA | 0.9855 ± 0.007
93 | TAGGAAGGAG | 0.98 ± 0.06
94 | AAAGGCGTAA | 0.997 ± 0.013
95 | TTTGAGGTGC | 1.06 ± 0.031
96 | TTTAAAGATT | 1.01 ± 0.037
97 | TTGGAAAGTT | 1.01 ± 0.028
98 | GGACAAGGGG | 0.962 ± 0.038
99 | GGGGTTACAT | 0.9919 ± 0.0072
100 | CATTGACTTT | 1.02 ± 0.016

Row | Sequence | switch fluorescence ratio
101 | GGGGTTTCGT | 1.01 ± 0.067
102 | CACAAGGTAT | 1.03 ± 0.033
103 | TGAAATATGG | 1 ± 0.017
104 | TGATCGTCGG | 1.02 ± 0.013
105 | GGGTTTCAGG | 1.017 ± 0.0021
106 | ATCTACGTTG | 1.05 ± 0.012
107 | GTTGTTAGCG | 1 ± 0.037
108 | GCAGTTGAGT | 1.01 ± 0.017
109 | TCGAGTCGTG | 0.9922 ± 0.0054
110 | GGTAGAGGTT | 0.985 ± 0.019
111 | CCGGGCGTCG | 1.26 ± 0.31
112 | GGGTTTAATA | 0.996 ± 0.034
113 | TTTCCGCGGA | 0.97 ± 0.024
114 | GAAGATTGGG | 0.998 ± 0.053
115 | AAGTTAAAA | 1.04 ± 0.092
116 | AATTTAGGTT | 0.993 ± 0.03
117 | ATCGCGTGTG | 1.009 ± 0.0062
118 | GGGTCTGGAG | 1 ± 0.034
119 | GGGTATAAGA | 0.9976 ± 0.0075
120 | TGGGGCGAAA | 0.997 ± 0.089
121 | TCTTCGTTTT | 1.23 ± 0.32
122 | TTGGGGGAGT | 1.03 ± 0.022
123 | GCGTTTGGG | 1.14 ± 0.15
124 | CGGTGGCGGG | 1.004 ± 0.0095
125 | ATATGGTTGA | 0.964 ± 0.049

Row | Sequence | switch fluorescence ratio
126 | AAGTCATGGA | 1.02 ± 0.027
127 | ATTTAAGCTT | 1.07 ± 0.048
128 | CAGGAAATTG | 1.02 ± 0.052
129 | TTTATTAGCA | 0.968 ± 0.05
130 | TGGCTGCCGT | 0.988 ± 0.032
131 | ATGACCTCGG | 1.02 ± 0.07
132 | GGTCCAAAAT | 0.9848 ± 0.0089
133 | TCGTTTGGTT | 1.04 ± 0.026
134 | TATCAGAGGT | 1.03 ± 0.036
135 | ATCTTCAATT | 1.005 ± 0.0055
136 | GATGTTGTTG | 0.997 ± 0.054
137 | TGGCCAAATT | 1.03 ± 0.019
138 | ATGGTTTATA | 0.977 ± 0.045
139 | CAGGGTGGGG | 1.03 ± 0.048
140 | GGGAGGAAAA | 1.02 ± 0.016
141 | GGGGCATCTT | 1.01 ± 0.046
142 | TTTTAATTCC | 1.02 ± 0.038
143 | ATAGGGGGCA | 0.98 ± 0.023
144 | TCACCATATT | 1.05 ± 0.02
145 | TATAGGTTGG | 1.02 ± 0.031
146 | ATACGGGGAT | 1.014 ± 0.0093
147 | TGGGGTATGT | 1 ± 0.031
148 | GCCCGTATGC | 1.07 ± 0.011
149 | AACTGGGGGG | 1 ± 0.045
150 | TGCGGGGCTT | 0.997 ± 0.048

Row | Sequence | switch fluorescence ratio
151 | AAAAGTTGTA | 1.01 ± 0.027
152 | AACATGGGGA | 0.976 ± 0.025
153 | GAGGTTTTTT | 0.987 ± 0.021
154 | TATTAGAGGT | 0.997 ± 0.019
155 | CGTAGCGTCC | 1.13 ± 0.019
156 | CTTTTAATTT | 1.04 ± 0.022
157 | CATGCTTTCT | 0.9836 ± 0.0079
158 | TCTGGCGTAA | 1.79 ± 1.1
159 | AATAAGACGG | 1.011 ± 0.0061
160 | CGCGTACGTT | 1.05 ± 0.018
161 | GGGGACGGGA | 0.989 ± 0.024
162 | GGGGTAAGCG | 0.978 ± 0.033
163 | GGATTTAATG | 0.9523 ± 0.0057
164 | CTAATTATGG | 1.04 ± 0.014
165 | GCGGATGTAG | 1.01 ± 0.03
166 | TTTTTTCGGT | 1.01 ± 0.051
167 | ATGTTTATCG | 0.97 ± 0.016
168 | TTTGGGGGTT | 1.01 ± 0.039
169 | AAGTGCAGGG | 0.9896 ± 0.0057
170 | ATTGGTGTCT | 1.01 ± 0.034
171 | TAAACGGGCG | 0.983 ± 0.019
172 | TGGTGGCCCG | 1.04 ± 0.035
173 | TCGCTCCTGG | 1 ± 0.046
174 | TCGTGTTACT | 1.005 ± 0.008
175 | TTTGGGTGAG | 0.993 ± 0.023

Row | Sequence | switch fluorescence ratio
176 | GGAAGGGGGA | 1.07 ± 0.096
177 | CAGGTCTTGG | 1.01 ± 0.03
178 | TATCAGCTGA | 0.9974 ± 0.0036
179 | CAATGATCAG | 1.006 ± 0.0081
180 | ATAAAATTTT | 1 ± 0.03
181 | AGTGTGGTCT | 1.02 ± 0.045
182 | CGCATGCTGG | 1.02 ± 0.024
183 | ATTGACATAT | 1.054 ± 0.0046
184 | CGGGGGAAAG | 1.01 ± 0.041
185 | GAGGCTACTG | 0.9901 ± 0.0082
186 | TGAGGTATCT | 1.007 ± 0.0091
187 | TCTGGTTTGG | 1.03 ± 0.049
188 | TTATCAAGGG | 0.975 ± 0.025
189 | GATGTCTGGG | 0.959 ± 0.027
190 | AGCGACGGAG | 0.966 ± 0.024
191 | GATGTTAAGC | 0.9867 ± 0.0095
192 | TGGGAGTAGC | 0.9907 ± 0.0091
193 | AGGGCGGGTA | 1.01 ± 0.014
194 | ATATCCGGGA | 1.03 ± 0.015
195 | TTGGCCGGAT | 0.9532 ± 0.0042
196 | TTAGGGTGTT | 1 ± 0.07
197 | GGGGAAAACA | 1 ± 0.014
198 | TAGGGGGTAA | 0.997 ± 0.039
199 | GGGTATAGTC | 1.02 ± 0.074
200 | AGTCGTTTTT | 0.98 ± 0.026
